Experimental data as given in article PMC4710668, “Bioactivation of food genotoxicants 5-hydroxymethylfurfural and furfuryl alcohol by sulfotransferases from human, mouse and rat: a comparative study” (Archives of Toxicology, 2014).

Experiments:
Assay in all cases: HMF sulfoconjugation assay
Conditions in all cases: other: catalytic efficiency of HMF sulfoconjugation; pH 7.4
[1] = test system: T1, O=Cc1ccc(CO)o1; format: biochemical, human
T1 construct: made in house; host or cells: Salmonella typhimurium TA1538 (cytosolic fraction, not purified)
Experimental: (§1) Cytosolic fractions containing individual SULT forms were prepared from transgenic S. typhimurium TA1538. Table S1 in the Supplementary Material provides a summary of the thirty SULTs used in the current study together with references describing the cloning of the respective S. typhimurium TA1538 strains. The expressed SULT forms are denoted with the prefixes h, m and r for human, mouse and rat enzymes, respectively. Bacteria were grown in Luria Broth medium containing ampicillin (100 µg/ml) by stirring for 8 h at 200 revolutions/min at 37 °C. The bacterial suspensions were centrifuged at 5,000 g for 10 min. […] The protein concentrations were determined according to a bicinchoninic acid (BCA) assay protocol. […]
(§2) The reactions were conducted in mixtures of 100 µl containing 25–200 µg protein, 50 mM potassium phosphate buffer (pH 7.4), 5 mM MgCl2, 50 µM PAPS and different concentrations of HMF at 37 °C. Preliminary experiments ensured that measurements were recorded under ‘linear’ conditions, i.e., doubling of protein concentration or incubation time was doubling the amount of sulfate ester formed. […]
(§3) SMF concentrations of the clear supernatants were analyzed by UPLC-MS/MS. The protocol was adapted from the quantification of SMF in plasma samples of HMF-treated mice (Monien et al. [2009]). […]

[2] = test system: T2, O=Cc1ccc(CO)o1; format: biochemical, mouse
T2 construct: made in house; host or cells: Salmonella typhimurium TA1538 (cytosolic fraction, enzyme not purified)
Experimental: as §1, §2, §3

[3] = test system: T2, O=Cc1ccc(CO)o1; format: biochemical, rat
Experimental: as §1, §2, §3

Chain of rSult1b1 (Rattus norvegicus) (chain, as listed by the source): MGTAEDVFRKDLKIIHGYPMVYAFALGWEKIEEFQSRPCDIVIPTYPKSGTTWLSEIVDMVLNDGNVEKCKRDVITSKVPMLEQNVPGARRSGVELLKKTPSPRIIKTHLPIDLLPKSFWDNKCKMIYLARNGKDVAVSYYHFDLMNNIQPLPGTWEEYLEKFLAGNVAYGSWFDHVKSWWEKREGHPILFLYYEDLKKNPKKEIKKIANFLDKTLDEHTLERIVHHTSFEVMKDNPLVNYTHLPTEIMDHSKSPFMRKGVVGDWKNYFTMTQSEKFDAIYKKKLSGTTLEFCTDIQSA
Chain of hSULT1B1 (Homo sapiens) (chain, as listed by the source): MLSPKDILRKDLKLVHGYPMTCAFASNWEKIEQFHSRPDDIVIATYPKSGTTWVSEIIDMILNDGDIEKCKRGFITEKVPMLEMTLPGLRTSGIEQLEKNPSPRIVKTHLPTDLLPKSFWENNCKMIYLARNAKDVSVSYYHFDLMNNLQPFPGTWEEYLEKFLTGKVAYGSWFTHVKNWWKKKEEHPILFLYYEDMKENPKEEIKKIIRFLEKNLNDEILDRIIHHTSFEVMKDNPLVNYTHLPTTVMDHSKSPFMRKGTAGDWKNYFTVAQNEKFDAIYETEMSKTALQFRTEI
Chain of mSult1b1 (Mus musculus) (chain, as listed by the source): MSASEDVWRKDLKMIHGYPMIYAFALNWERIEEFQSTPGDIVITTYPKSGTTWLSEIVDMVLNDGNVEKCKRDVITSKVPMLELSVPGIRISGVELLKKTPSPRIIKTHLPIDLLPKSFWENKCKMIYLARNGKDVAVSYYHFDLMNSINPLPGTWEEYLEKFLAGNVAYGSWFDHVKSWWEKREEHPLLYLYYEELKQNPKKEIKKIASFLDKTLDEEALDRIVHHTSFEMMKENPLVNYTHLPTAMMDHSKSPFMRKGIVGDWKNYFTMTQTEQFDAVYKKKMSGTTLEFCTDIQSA

hSULT1B1 (Homo sapiens) showed a kcat/Km [1] of 0.31 M⁻¹ s⁻¹.
mSult1b1 (Mus musculus) showed a kcat/Km [2] of 0.36 M⁻¹ s⁻¹.
rSult1b1 (Rattus norvegicus) was tested, and the kcat/Km [3] was 0.09 M⁻¹ s⁻¹.
